Results from PMC10279719.
pKd: −log10 of the molar value. One block for each substance: values may come before it.

Key:
[1] = molecular target: 14-3-3σ (Methods: 14-3-3ς, with an accession that is 14-3-3ζ) 1-245; test: SPR, immobilized 14-3-3σ
14-3-3η 1-246 = 14-3-3η 1-246 (UniProt Q04917); test: SPR, immobilized 14-3-3η
14-3-3ε 1-255 = 14-3-3ε 1-255 (UniProt P62258); test: SPR, immobilized 14-3-3ε
[2] = molecular target: PEAK1^IDR1 (residues 1082-1746), from insect cells (human) (UniProt Q9H792); test: SPR; biotinylated PEAK proteins (with or without Src phosphorylation) captured with a biotin CAPture kit; Grb2 FL, Grb2 SH2, CrkII SH2, CrkII FL monomer or dimer as analytes; Biacore 8K+, 20 °C, HBS-TP with NaCl raised to 500 mM; 1 M NaCl regeneration; steady state
PEAK1^IDR1 (residues 1082-1746), from insect cells (human), sequence (Q9H792 1082-1746): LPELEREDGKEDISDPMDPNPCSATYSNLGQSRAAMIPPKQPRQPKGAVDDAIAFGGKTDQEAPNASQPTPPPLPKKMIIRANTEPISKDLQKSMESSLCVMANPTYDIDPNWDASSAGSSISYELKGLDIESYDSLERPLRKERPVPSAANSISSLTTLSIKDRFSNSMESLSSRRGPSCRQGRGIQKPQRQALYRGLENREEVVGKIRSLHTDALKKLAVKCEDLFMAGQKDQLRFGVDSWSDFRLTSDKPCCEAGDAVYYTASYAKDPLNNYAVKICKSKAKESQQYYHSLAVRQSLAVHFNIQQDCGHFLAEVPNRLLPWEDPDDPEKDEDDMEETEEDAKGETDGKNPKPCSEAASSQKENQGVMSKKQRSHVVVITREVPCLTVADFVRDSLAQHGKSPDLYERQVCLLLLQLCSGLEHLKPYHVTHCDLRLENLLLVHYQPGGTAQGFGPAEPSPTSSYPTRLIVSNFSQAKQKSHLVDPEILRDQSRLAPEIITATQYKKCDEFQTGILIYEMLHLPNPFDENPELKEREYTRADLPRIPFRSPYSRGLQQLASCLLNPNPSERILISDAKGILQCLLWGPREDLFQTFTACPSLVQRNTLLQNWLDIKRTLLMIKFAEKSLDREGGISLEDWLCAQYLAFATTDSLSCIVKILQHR

[3] = molecular target: PEAK1^IDR1 (residues 1082-1746), from insect cells, phosphorylated by Src (human) (UniProt Q9H792); test: as above
PEAK1^IDR1 (residues 1082-1746), from insect cells, phosphorylated by Src (human), sequence (Q9H792 1082-1746): as above

[4] = molecular target: PEAK2^IDR1 (human PEAK2 residues 802–1406) (human) (UniProt Q86YV5); test: SEC-MALS; purified PEAK2^IDR1:CrkII^FL dimer complex (170 μg), Superdex 200 Increase 10/300, 20 mM HEPES pH 7.5, 150 mM NaCl, 1 mM TCEP
PEAK2^IDR1 (human PEAK2 residues 802–1406) (human), sequence (Q86YV5 802-1406): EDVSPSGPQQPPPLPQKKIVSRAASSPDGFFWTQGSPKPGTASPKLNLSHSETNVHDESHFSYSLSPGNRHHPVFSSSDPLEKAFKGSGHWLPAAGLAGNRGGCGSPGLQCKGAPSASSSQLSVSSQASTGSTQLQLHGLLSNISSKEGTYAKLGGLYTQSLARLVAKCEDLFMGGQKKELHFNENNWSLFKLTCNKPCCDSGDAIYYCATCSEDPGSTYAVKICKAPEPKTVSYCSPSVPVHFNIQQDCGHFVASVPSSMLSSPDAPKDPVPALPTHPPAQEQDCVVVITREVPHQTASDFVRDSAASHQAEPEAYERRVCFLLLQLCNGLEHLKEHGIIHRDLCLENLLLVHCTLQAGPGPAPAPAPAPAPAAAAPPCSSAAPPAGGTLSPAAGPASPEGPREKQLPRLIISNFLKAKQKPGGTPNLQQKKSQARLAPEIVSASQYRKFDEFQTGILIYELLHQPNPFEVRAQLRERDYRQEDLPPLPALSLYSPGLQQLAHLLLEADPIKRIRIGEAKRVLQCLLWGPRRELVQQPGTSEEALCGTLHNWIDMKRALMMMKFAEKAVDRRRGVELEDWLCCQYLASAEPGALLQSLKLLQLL

[5] = molecular target: full length CrkII, dimer (CrkII^FL dimer) (human) (UniProt P46108); test: SEC; single purified proteins on Superdex 200 (purification and re-runs), 20 mM HEPES pH 7.5–8.5, 150 mM NaCl, 1 mM TCEP; oligomeric state
[6] = molecular target: 14-3-3γ (residues 1-247) (human); test: SPR; 14-3-3 isoforms amine coupled to a CM5 chip, tandem peptides as analytes (10 µM-10 nM for PEAK3 tandem-pS69, 20 µM-20 nM for all others); Biacore S200, 20 °C, HBS-TP; steady state, 1:1 model
[7] = molecular target: 14-3-3ε (residues 1-255) (human) (UniProt P62258); test: as above
14-3-3ε (residues 1-255) (human), sequence (P62258 whole entry, the tested form may be a part): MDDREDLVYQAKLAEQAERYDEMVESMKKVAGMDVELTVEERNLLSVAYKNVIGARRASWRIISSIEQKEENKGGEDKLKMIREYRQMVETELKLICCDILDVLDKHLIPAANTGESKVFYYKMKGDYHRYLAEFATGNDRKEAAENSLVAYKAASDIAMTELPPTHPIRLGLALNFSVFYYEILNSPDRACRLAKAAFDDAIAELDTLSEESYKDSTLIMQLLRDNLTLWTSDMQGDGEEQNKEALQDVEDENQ

[8] = molecular target: 14-3-3η (residues 1-246) (human); test: as above
14-3-3γ 1-247 = 14-3-3γ 1-247 (UniProt P61981); test: SPR, immobilized 14-3-3γ; conditions: reference: non-phosphorylated PEAK1tandem peptide; sites T1165
[9] = molecular target: PEAK2^IDR1 (residues 802-1406), from insect cells, phosphorylated by Src (human) (UniProt Q86YV5); test: SPR; biotinylated PEAK proteins (with or without Src phosphorylation) captured with a biotin CAPture kit; Grb2 FL, Grb2 SH2, CrkII SH2, CrkII FL monomer or dimer as analytes; Biacore 8K+, 20 °C, HBS-TP with NaCl raised to 500 mM; 1 M NaCl regeneration; steady state
PEAK2^IDR1 (residues 802-1406), from insect cells, phosphorylated by Src (human), sequence (Q86YV5 802-1406): as the sequence (Q86YV5 802-1406) above

[10] = molecular target: full length PEAK3 (PEAK3^FL, residues 1-473), from insect cells, phosphorylated by Src (human) (UniProt Q6ZS72); test: as above
full length PEAK3 (PEAK3^FL, residues 1-473), from insect cells, phosphorylated by Src (human), sequence (Q6ZS72 whole entry, the tested form may be a part, canonical isoform): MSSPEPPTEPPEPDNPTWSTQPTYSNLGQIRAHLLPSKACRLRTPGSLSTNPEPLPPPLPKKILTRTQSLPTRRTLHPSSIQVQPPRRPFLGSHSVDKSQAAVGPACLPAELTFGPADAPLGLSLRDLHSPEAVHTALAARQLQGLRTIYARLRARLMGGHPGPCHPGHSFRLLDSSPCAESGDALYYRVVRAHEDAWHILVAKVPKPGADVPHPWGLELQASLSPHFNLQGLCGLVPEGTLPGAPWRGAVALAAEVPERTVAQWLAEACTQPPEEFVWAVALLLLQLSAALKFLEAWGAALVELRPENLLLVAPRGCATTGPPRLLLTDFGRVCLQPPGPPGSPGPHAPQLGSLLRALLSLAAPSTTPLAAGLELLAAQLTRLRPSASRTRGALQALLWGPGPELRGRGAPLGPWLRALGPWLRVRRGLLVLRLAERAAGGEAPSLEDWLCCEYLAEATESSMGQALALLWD

14-3-3γ (human) = test: SPR; Biacore S200; 14-3-3 isoforms amine coupled to CM5, peptides injected (10 µM–10 nM for PEAK3^tandem-pS69, 20 µM–20 nM for other peptides); 20 °C, HBS-TP; steady-state 1:1 fit
[11] = molecular target: PEAK3^(tandem, 54–74)pS69:14-3-3γ complex (human); test: ITC; ternary, sequential; CrkII^NSH3 (400 μM, syringe) titrated into the peptide (16.8 µM) left in the cell after a first titration with 14-3-3ɣ; 25 °C, 20 mM HEPES pH 7.4, 150 mM NaCl, 1 mM TCEP
[12] = molecular target: PEAK3 tandem-pS69 peptide (residues 54-74) (human); test: ITC; binary; peptide in the cell (20 µM, or 16.8 µM after a buffer titration), protein in the syringe; 25 °C, 20 mM HEPES pH 7.4, 150 mM NaCl, 1 mM TCEP; single binding site model
[13] = molecular target: PEAK3 SH2-pY peptide 23-29 (Homo sapiens) (UniProt Q6ZS72); test: ITC; conditions: cited from earlier work
PEAK3 SH2-pY peptide 23-29 (Homo sapiens), sequence (Q6ZS72 whole entry, looked up, the tested form may be a part): as the sequence (Q6ZS72 whole entry, the tested form may be a part, canonical isoform) above

[14] = molecular target: PEAK3^tandem-pS69 peptide (residues 54–74, phosphorylated at S69) (human); test: ITC; binary; peptide (20 μM) in the cell, protein in the syringe (14-3-3ɣ 200 μM; CrkII^NSH3 140 or 400 μM); 25 °C, 20 mM HEPES pH 7.4, 150 mM NaCl, 1 mM TCEP; single site model
[15] = molecular target: PEAK3tandem-pS69 peptide (residues 54-74) (human); test: ITC; 25 °C, peptide (20 µM) in the cell, protein in the syringe, sequential titrations; 20 mM HEPES pH 7.4, 150 mM NaCl, 1 mM TCEP; single binding site model
[16] = molecular target: PEAK3 tandem-pS69 : 14-3-3γ (K50E) complex (human); test: ITC; ternary; CrkII NSH3 in the syringe titrated into the peptide:14-3-3γ complex left in the cell (16.8 µM) after the first titration; 25 °C, 20 mM HEPES pH 7.4, 150 mM NaCl, 1 mM TCEP; single binding site model
[17] = reference: non-phosphorylated PEAK3tandem peptide, sites S69
[18] = reference: non-phosphorylated PEAK1tandem peptide, sites T1165

PEAK2 tandem peptide, non-phosphorylated (residues 812-831), sequence (peptide): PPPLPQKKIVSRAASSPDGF

Substance: PEAK3 54-74 (from UniProt Q6ZS72) PEAK3tandem-pS69 peptide
binding against the reference [1, 17]: stronger | binding against the reference (14-3-3η 1-246; [17]): stronger | binding against the reference (14-3-3ε 1-255; [17]): stronger

Substance: PEAK2 tandem-pS826 peptide (residues 812-831)
pKd [6]: 5.87 | pKd [7]: 5.13 | pKd [8]: 5.71

Substance: PEAK3 tandem peptide, non-phosphorylated (residues 54-74)
pKd [7]: < 4.00

Substance: PEAK1 tandem-pT1165 peptide (residues 1152-1171)
pKd [7]: 5.27

Substance: PEAK3^tandem peptide, non-phosphorylated (residues 54–74; Ac-…-NH2)
pKd (14-3-3γ (human)): < 5.00

Substance: CrkII NSH3 domain (CrkII^NSH3, residues 134–191) (from UniProt P46108-1 134-191) (domain or fragment)
pKd [11]: 5.44

Substance: 14-3-3γ (gamma) (K50E) (natural protein)
pKd [12]: 5.22 | stoichiometry N [12]: 0.726

Substance: CrkII (from UniProt P46108)
pKd [13]: 5.11

Substance: 14-3-3γ (natural protein)
pKd [14]: 6.89 | pKd [15]: 6.90

Substance: CrkII N-terminal SH3 domain (CrkII^NSH3, residues 134-191) (from UniProt P46108-1 134-191) (domain or fragment)
pKd [16]: 5.49 | stoichiometry N [16]: 0.69

Results, then the substance that gave them:

pKd [2]: < 4.30 | pKd [3]: 5.37
Substance: full length Grb2 (Grb2^FL, residues 1-217) (from UniProt P62993-1 1-217) (natural protein)

stoichiometry N (CrkII chains per PEAK2 chain (2:2)) [4]: 1 | percent of the isolated protein that is dimer [5]: 10%
Substance: full length CrkII, dimer (CrkII^FL dimer) (from UniProt P46108-1 1-304) (natural protein)

pKd [6]: < 4.00 | pKd [7]: < 4.00 | pKd [8]: < 4.00
Substance: PEAK2 tandem peptide, non-phosphorylated (residues 812-831)

binding against the reference [1, 18]: stronger | binding against the reference (14-3-3γ 1-247): stronger | binding against the reference (14-3-3η 1-246; [18]): stronger | binding against the reference (14-3-3ε 1-255; [18]): stronger
Substance: PEAK1 1152-1171 (from UniProt Q9H792) PEAK1tandem-pT1165 peptide

pKd [7]: 6.11
Substance: PEAK3 tandem-pS69 peptide (residues 54-74)

pKd [9]: 4.68 | pKd [10]: 4.32 | pKd [3]: 4.90
Substance: CrkII SH2 domain (CrkII^SH2, residues 6-120) (from UniProt P46108-1 6-120) (domain or fragment)

pKd [7]: < 4.00
Substance: PEAK1 tandem peptide, non-phosphorylated (residues 1152-1171)
